Data taken from publication PMC10551896, “Methylation of the transcription factor E2F1 by SETD6 regulates SETD6 expression via a positive feedback mechanism” (The Journal of Biological Chemistry, 2023).

Target: T1, recombinant glutathione-S-transferase (GST)-tagged SETD6 (UniProt Q8TBK2 1-473)
T1 construct: SET domain-containing protein 6 (SETD6), a 53 kDa protein lysine methyltransferase; also called GST-SETD6; GST SETD6
T1 sequence (looked up): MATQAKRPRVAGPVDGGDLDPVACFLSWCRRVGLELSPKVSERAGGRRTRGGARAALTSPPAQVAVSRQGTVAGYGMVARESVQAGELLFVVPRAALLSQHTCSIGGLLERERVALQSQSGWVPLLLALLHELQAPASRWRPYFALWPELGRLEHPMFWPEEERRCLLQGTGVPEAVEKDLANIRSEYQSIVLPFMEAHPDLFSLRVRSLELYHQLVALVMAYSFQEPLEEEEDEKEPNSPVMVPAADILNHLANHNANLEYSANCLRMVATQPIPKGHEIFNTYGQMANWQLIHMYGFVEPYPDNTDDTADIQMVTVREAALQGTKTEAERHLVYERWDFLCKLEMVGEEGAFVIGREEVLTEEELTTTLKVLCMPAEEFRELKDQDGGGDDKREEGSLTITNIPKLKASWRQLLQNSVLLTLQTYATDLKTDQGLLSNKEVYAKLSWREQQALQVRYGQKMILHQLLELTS
Test: ELISA; His-SUMO-E2F1 (2 ug) in PBS immobilised on a 96-well plate, 1 h room temperature, blocked with 3% BSA; 0.5 ug GST-SETD6 in 1% BSA in PBS and Tween-20 for 1 h at room temperature; detected with anti-GST and HRP-conjugated secondary antibody, absorbance at 450 nm
Settings: both partners purified

B1: recombinant His-SUMO-E2F1 (natural protein)
chain: not shown
notes: the same insert was cloned into pET-SUMO and pGEX-6p1; also called His-SUMO-E2F1 WT; source: E. coli Rosetta, purified (nickel-nitrilotriacetic acid beads or HisTrap column)
B1: binds.
